{"source": "patent US20230364000A1", "about": "“COMPOSITIONS COMPRISING COMBINATIONS OF COLLAGEN OR ELASTIN POLYPEPTIDES WITH ACTIVE INGREDIENTS AND METHODS OF USING SAME” (Geltor, Inc., priority 2020, published 2023)", "key": {"[1]": {"tested_on": "facial skin", "assay": "Corneometer skin hydration, clinical study of Example 3", "format": "in vivo, human", "parameters": "key to Corneometer Mean Percent Improvement From BL mean: NI = No Improvement", "conditions": "0.1% w/w topical formulation; for Corneometer Mean ± SD: n 14, baseline 42.45 ± 10.06", "experimental": "(§1) A clinical study using human subjects to determine the effects of a topical skincare product containing truncated human type 21 collagen (SEQ ID NO: 16) is performed. The research is performed according to U.S. and International standards of Good Clinical Practice (FDA and ICH guidelines) and applicable government regulations.\n(§2) A base formulation (control formulation) made of water, olive oil glycereth-8 esters, glycerin, coconut alkanes, hydroxyethyl acrylate/sodium acryloyldimethyl taurate copolymer, pentylene glycol, disodium EDTA, caprylyl glycol, chlorphenesin, phenoxyethanol is prepared. A formulation containing the truncated human type 21 collagen is prepared by adding sufficient collagen to prepare a topical formulation containing 0.1% w/w collagen.\nThe corneometer CM 820 (Courage+Khazaka, Germany) measures the relative degree of hydration of the skin surface by applying an alternating current to the skin with a closely spaced pair of electrodes and measuring the capacitance. Changes in water content of the skin change the conductance of the capacitive circuit.\nThe corneometer is able to detect slight changes in the hydration level reproducibly with a measurement time of only about one second. The measurement depth is small (approximately 10-20 μm of stratum corneum) which ensures assessment is not influenced by deeper skin layers.\nAll subjects undergo corneometer measurements of their face at baseline, immediately post-initial-application, and at weeks 2, 4, and 8. Measurements will be taken in triplicate and averaged for each time point. Measurement location is recorded on a face map for assessment consistency at each time point.\n(§3) Improvements in skin hydration, firmness, and elasticity were statistically significant."}, "[2]": {"tested_on": "facial skin", "assay": "Cutometer skin firmness and elasticity, clinical study of Example 3", "format": "in vivo, human", "conditions": "0.1% w/w topical formulation; for Cutometer Elasticity (R5 Ur/Ue) Mean ± SD / Cutometer Firmness (R0 Uf) Mean ± SD / Cutometer Elasticity (R2 Ua/Uf) Mean ± SD: n 14; for Cutometer Elasticity (R5 Ur/Ue) Mean ± SD: baseline 0.28 ± 0.06; for Cutometer Firmness (R0 Uf) Mean ± SD: baseline 0.35 ± 0.06; for Cutometer Elasticity (R2 Ua/Uf) Mean ± SD: baseline 0.64 ± 0.09", "experimental": "as §1, §2\nThe Cutometer MPA 580 (Courage+Khazaka, Germany) measures the viscoelastic properties of the skin by applying suction to the skin surface, drawing the skin into the aperture of the probe and determining the penetration depth using an optical measuring system.\nThe Cutometer outputs include many parameters of different portions of the measurement curve including of R0 (Uf, firmness), R2 (Ua/Uf, gross elasticity), R5 (Ur/Ue, net elasticity), R7 (Ur/Uf, elastic portion) and R9 (R3 [last max amp]-R0 [Uf], fatigue).\nAll subjects have Cutometer measurements taken on the left or right cheek (following a prepared randomization code) at baseline, immediately post-initial-application, and at weeks 2, 4, and 8. Skin elasticity is reported using the R5 (Ur/Ue) and R2 (Ua/Uf) parameter. As the skin becomes more elastic, this value will increase. Skin Firmness is reported using the R0 (Uf) parameter. As the skin becomes firmer, this value will decrease. Assessment location is recorded on a face map for each subject for consistency of measurements between visits.\nas §3"}, "[3]": {"tested_on": "human primary fibroblasts", "assay": "Fibroblast collagen type I protein secretion (pro-collagen type I C-peptide ELISA)", "format": "cell-based", "conditions": "0.03%; 48 hours; compared with untreated cells or cells treated with retinol; FIG. 1", "experimental": "A series of in vitro experiments were conducted to assess the effects of a truncated human type 21 collagen on human skin fibroblasts and keratinocytes. In a first experiment, human primary fibroblasts were evaluated for collagen type I protein secretion. Fibroblasts were cultured with 0.03% of a polypeptide according to SEQ ID NO: 16 for 48 hours. Culture supernatants were analyzed by Enzyme Linked Immunosorbent Assay (ELISA) for pro-collagen type I C-peptide, which is a readout for total secreted collagen type I protein."}, "[4]": {"tested_on": "facial skin", "assay": "Cutometer facial skin elasticity, clinical study of Example 5", "format": "in vivo, human", "conditions": "topical facial serum 0.1%, n=15, FIG. 6", "description": "In a clinical study (n=15 subjects), subjects used a topical facial serum containing 0.1% of a polypeptide of SEQ ID NO: 16 for 8 weeks, after using a protein-free base facial serum for a 1-week washout period. Topical application of a polypeptide of SEQ ID NO: 16 was associated with increased skin elasticity, measured using a cutometer."}, "[5]": {"tested_on": "Human full-thickness skin equivalents (MatTek Epiderm FT co-culture tissue models)", "assay": "Elastin production in human full-thickness skin equivalents (ELISA)", "format": "cell-based", "conditions": "polypeptide 0.1% w/w, retinol (10, unit not given), ascorbic acid 2% w/w, FIG. 20", "description": "The combination of the truncated human type 21 collagen polypeptide with retinol increased elastin production by 45% relative to untreated control. This appeared to be a synergistic effect as treatment with truncated human type 21 collagen polypeptide alone increased elastin production by 20% and treatment with retinol alone increased elastin production by 17%. The combination of the truncated human type 21 collagen polypeptide with ascorbic acid increased elastin production by 33% relative to untreated control. This appeared to be a synergistic effect as treatment with truncated human type 21 collagen polypeptide alone increased elastin production by 20% and treatment with ascorbic acid alone increased elastin production by 5%."}}, "data": [{"molecule": "SEQ ID NO: 16: truncated human collagen type 21 alpha 1 without the DsbA secretion tag, recombinantly expressed in E. coli (protein) AGFPGLPGPAGEPGRHGKDGLMGSPGFKGEAGSPGAPGQDGTRGEPGIPGFPGNRGLMGQKGEIGPPGQQGKKGAPGMPGLMGSNGSPGQPGTPGSKGSKGEPGIQGMPGASGLKGEPGATGSPGEPGYMGLPGIQGKKGDKGNQGEKGIQGQKGENGRQGIPGQQGIQGHHGAKGERGEKGEPGVR", "values": [{"measurement": "Corneometer Mean Percent Improvement From BL mean", "setting": "[1]; Immediate", "value": 36.69, "unit": "%"}, {"measurement": "Corneometer Percent of Subjects Showing Improvement From BL", "setting": "[1]; Immediate", "value": 100, "unit": "%"}, {"measurement": "Corneometer Mean ± SD", "setting": "[1]; Immediate, P-value <0.001*", "value": "57.22 ± 12.47"}, {"measurement": "Corneometer Mean Percent Improvement From BL mean", "setting": "[1]; Week 2", "value": "NI"}, {"measurement": "Corneometer Percent of Subjects Showing Improvement From BL", "setting": "[1]; Week 2", "value": 14.3, "unit": "%"}, {"measurement": "Corneometer Mean ± SD", "setting": "[1]; Week 2, P-value 0.001** (significant worsening)", "value": "35.71 ± 10.77"}, {"measurement": "Cutometer Elasticity (R2 Ua/Uf) Mean Percent Improvement From BL mean", "setting": "[2]; Immediate", "value": 45.85, "unit": "%"}, {"measurement": "Cutometer Elasticity (R5 Ur/Ue) Mean Percent Improvement From BL mean", "setting": "[2]; Immediate", "value": 44.57, "unit": "%"}, {"measurement": "Cutometer Elasticity (R5 Ur/Ue) Percent of Subjects Showing Improvement From BL", "setting": "[2]; Immediate", "value": 92.9, "unit": "%"}, {"measurement": "Cutometer Firmness (R0 Uf) Mean Percent Improvement From BL mean", "setting": "[2]; Immediate", "value": 30.38, "unit": "%"}, {"measurement": "Cutometer Firmness (R0 Uf) Percent of Subjects Showing Improvement From BL", "setting": "[2]; Immediate", "value": 100, "unit": "%"}, {"measurement": "Cutometer Elasticity (R5 Ur/Ue) Mean ± SD", "setting": "[2]; Immediate, P-value <0.001*", "value": "0.40 ± 0.09"}, {"measurement": "Cutometer Firmness (R0 Uf) Mean ± SD", "setting": "[2]; Immediate, P-value <0.001*, value decreases as skin becomes firmer", "value": "0.24 ± 0.05"}, {"measurement": "Cutometer Elasticity (R2 Ua/Uf) Mean ± SD", "setting": "[2]; Immediate, P-value <0.001*", "value": "0.93 ± 0.13"}, {"measurement": "Cutometer Elasticity (R2 Ua/Uf) Mean Percent Improvement From BL mean", "setting": "[2]; Week 2", "value": 26.93, "unit": "%"}, {"measurement": "Cutometer Elasticity (R5 Ur/Ue) Mean Percent Improvement From BL mean", "setting": "[2]; Week 2", "value": 33.36, "unit": "%"}, {"measurement": "Cutometer Elasticity (R5 Ur/Ue) Percent of Subjects Showing Improvement From BL", "setting": "[2]; Week 2", "value": 92.9, "unit": "%"}, {"measurement": "Cutometer Firmness (R0 Uf) Mean Percent Improvement From BL mean", "setting": "[2]; Week 2", "value": 11.27, "unit": "%"}, {"measurement": "Cutometer Firmness (R0 Uf) Percent of Subjects Showing Improvement From BL", "setting": "[2]; Week 2", "value": 78.6, "unit": "%"}, {"measurement": "Cutometer Elasticity (R5 Ur/Ue) Mean ± SD", "setting": "[2]; Week 2, P-value <0.001*", "value": "0.37 ± 0.08"}, {"measurement": "Cutometer Firmness (R0 Uf) Mean ± SD", "setting": "[2]; Week 2, P-value 0.028*", "value": "0.31 ± 0.07"}, {"measurement": "Cutometer Elasticity (R2 Ua/Uf) Mean ± SD", "setting": "[2]; Week 2, P-value <0.001*", "value": "0.80 ± 0.09"}, {"measurement": "secreted collagen type I (pro-collagen type I C-peptide)", "setting": "[3]", "value": "higher levels"}, {"measurement": "subjects showing improvement with an increase in skin elasticity", "setting": "[4]; 2 weeks vs baseline", "value": 100, "unit": "%"}, {"measurement": "subjects showing improvement with an increase in skin elasticity", "setting": "[4]; 4 weeks vs baseline", "value": 100, "unit": "%"}, {"measurement": "increase of elastin production relative to untreated control", "setting": "[5]; day 2 supernatant", "value": 20, "unit": "%"}, {"measurement": "production of elastin as compared to untreated cells", "setting": "[5]; each agent alone, day 2, hyaluronic acid 0.1% w/w", "value": "increased production"}]}]}
